{
  "source": "paper PMC6602146",
  "about": "(Molecules and Cells, 2019)",
  "proteins": {"B1": {"name": "α-carbonic anhydrase from Persephonella marina EX-H1 (enzyme, UniProt C0QRB5 20-243, looked up)", "chain": "GGGWSYHGEHGPEHWGDLKDEYIMCKIGKNQSPVDINRIVDAKLKPIKIEYRAGATKVLNNGHTIKVSYEPGSYIVVDGIKFELKQFHFHAPSEHKLKGQHYPFEAHFVHADKHGNLAVIGVFFKEGRENPILEKIWKVMPENAGEEVKLAHKINAEDLLPKDRDYYRYSGSLTTPPCSEGVRWIVMEEEMEMSKEQIEKFRKIMGGDTNRPVQPLNARMIMEK"}},
  "biological_target": "the molecule itself",
  "experiment": "crystal structure",
  "data": [
    {"protein": "B1", "values": [
      {"measurement": "stoichiometry N", "result": 2}
    ]}
  ]
}
